Source: publication PMC7299280

Molecular target: SARS-CoV1-SΔ28 (SARS-CoV-1 spike protein truncated at the C terminus, on pseudovirions) (SARS-CoV-1)

CC6.33 (antibody) was tested, and the neutralization IC50 of SARS-CoV-1 pseudovirus was 0.162 µg/mL.
